Data from patent publication US20220119505A1.

B1: F45 single-domain antibody (VHH)
VHH: QVQLQESGGGLVQPGGSLRLSCLVSGGTFSWYAMGWFRQAPGKEREFVATVSRGGGSSYYADSVKGRFTISRDNAKNTVYLQMNSLKPEDTAVYYCAAGRGAPSDTGRPDEYDYWGQGTQVTVSS
B2: F45::(GGGGS)3::F45 homodivalent protein construct (VHH)
chain: QVQLQESGGGLVQPGGSLRLSCLVSGGTFSWYAMGWFRQAPGKEREFVATVSRGGGSSYYADSVKGRFTISRDNAKNTVYLQMNSLKPEDTAVYYCAAGRGAPSDTGRPDEYDYWGQGTQVTVSSGGGGSGGGGSGGGGSQVQLQESGGGLVQPGGSLRLSCLVSGGTFSWYAMGWFRQAPGKEREFVATVSRGGGSSYYADSVKGRFTISRDNAKNTVYLQMNSLKPEDTAVYYCAAGRGAPSDTGRPDEYDYWGQGTQVTVSS

Target: Atto 488 labelled FaeG (Escherichia coli)

Binder | Hydrodynamic radius (nm)
B1 | 3.02
B2 | 2.97
